Assays:
PET [1] = assay: Proxy for plastic degradation [Released monomer concentration (HPLC/LC-MS) (Total aromatic products)] (nmol/(min*cm²)); details: pH 9
PBSA = assay: Proxy for plastic degradation [kcat/Km (catalytic efficiency)] (mM⁻¹s⁻¹); details: pH 8.2
PET [2] = assay: Proxy for plastic degradation [Released monomer concentration (HPLC/LC-MS) (TPA+MHET)]; details: pH 9
PET [3] = assay: Proxy for plastic degradation [Released monomer concentration (HPLC/LC-MS) (TPA+EG)]; details: pH 8, 70 °C, part of the chain shown
PET [4] = assay: Proxy for plastic degradation [Crystallinity (DSC)] (% crystallinity loss); details: pH 9.4
PET [5] = assay: Proxy for plastic degradation [Released monomer concentration (HPLC/LC-MS) (TA)]; details: pH 7
PET [6] = assay: Proxy for plastic degradation [Released monomer concentration (HPLC/LC-MS) (BA)]; details: pH 7

B1: unnamed (protein)
chain: ANPYERGPNPTDALLEARSGPFSVSEENVSRLSASGFGGGTIYYPRENNTYGAVAISPGYTGTEASIAWLGERIASHGFVVITIDTITTLDQPDSRAEQLNAALNHMINRASSTVRSRIDSSRLAVMGHSMGGGGSLRLASQRPDLKAAIPLTPWHLNKNWSSVTVPTLIIGADLDTIAPVATHAKPFYNSLPSSISKAYLELDGATHVAPNIPNKIIGKYSVAWLKRFVDNDTRYTQFLCPGPRDGLFGEVEEYRSTCPFYPNSSSVDKLAAALE
**Q.** For B1, which “Proxy for plastic degradation” value (PET [1]) is on record?
**A.** The value was 6.5.

B2: unnamed (protein)
chain: ANPYERGPNPTDALLEARSGPFSVSEENVSRLSASGFGGGTIYYPRENNTYGAVAISPGYTGTEASIAWLGERIASHGFVVITIDTITTLDQPDSRAEQLNAALNHMINRASSTVRSRIDSSRLAVMGHSMGGGGSLRLASQRPDLKAAIPLTPWHLNKNWSSVTVPTLIIGADLDTIAPVATHAKPFYNSLPSSISKAYLELDGATHLAPNIPNKIIGKYSVAWLKRFVDNDTRYTQFLCPGPRDGLFGEVEEYRSTCPFYPNSSSVDKLAAALE
**Q.** How did the “Proxy for plastic degradation” value (PET [1]) turn out when B2 was run?
**A.** The value was 0.5.

B3: unnamed (protein)
chain: ANPYERGPNPTDALLEARSGPFSVSEENVSRLSASGFGGGTIYYPRENNTYGAVAISPGYTGTEASIAWLGERIASHGFVVITIDTITTLDQPDSRAEQLNAALNHMINRASSTVRSRIDSSRLAVMGHSMGGGGSLRLASQRPDLKAAIPLTPWHLNKNWSSVTVPTLIIGADLDTIAPVATHAKPFYNSLPSSISKAYLELDGATHWAPNIPNKIIGKYSVAWLKRFVDNDTRYTQFLCPGPRDGLFGEVEEYRSTCPFYPNSSSVDKLAAALE
**Q.** With B3 as the protein, how does the “Proxy for plastic degradation” value (PET [1]) read?
**A.** Its value is 3.

B4: unnamed (protein)
chain: MLAVWDDTLAHPVRGRDRELATLTGLLDNTSGRRGTGMVVVGAPGTGKTTLLNALVEHAEGFQVLWAEGSAAESDVRFAGVEQLLRPLESLVSLLPDDRGRALRPVWGLPADDEGQVGSLAVPAAVSALLGLAARRQPVLCCVDSAHLLDSASLSALAFAARRAHHAGVVFVFAVDCTADTEVDTETSVWGELPRLRLGRLDDEAAHALLRDRLGASLPHDLADSLLDVGHGHPLALVELAESLTPEHLCGRAAPPSSPPPEGRLCRTLGHRLSALSEGAREVVALAGISEGLDEQLTCRVLPHHRSTLAEAVRSGLVVLDGDTVRTAADTVPSALLAALTPQDIVQAHHRMAEAAEAVGDRDRAVWHRAAIAMAPDPALVADLDDIAERARAAAAHATAAAASERAAALTSDTKERARRLVAAATDHWASGRPQRARTALRLAAPLSDSVLGARVSRLAGEIELRRGDPSVAATKLISTARQLASTHRTLAASALMLAGEASFVAGDNARYCLTAKDAALLCGPEEWPATRVVREHFTAMSATFRGEHSAAAAPLRSLVELGETTPDPTAKTLASQAAFTLGDAERSRDLALQAVVCARARGDESGVPWALVYAALSALLSGQLSAASTTALEGLQVARSLGQSNSAVDHVTVLAMLAALQGDEETALQRLQAANTELAERGLGRPSALATWAAACVDLAHDRPAEAFDRFRRMTVGRSRHCVPLRVMAVPHFVEAAVRCGEKEVARRSLVTFEHWANTTGGTARVALAHRCHALLAEQDGEAQERFTEAVRLHREADAPYDLAVTQLLYASHLRRSRRPKQARELLREAVQLFDDLGATHWVERASQELRACGHPGRGKPHLSRGLSPQQERIAQLVADGATNKEIATQLFISHRTVDHHLRNIFAKLDVRSRVQLAALFR
**Q.** For B4, which “Proxy for plastic degradation” value (PBSA) is on record?
**A.** Its value is 375.

B5: unnamed (protein)
chain: MNPFEKGPDPTKTMLEASTGPFTYTTTTVSSTTASGYRQGTIYHPTNVTGPFAAVAVVPGYLASQSSINWWGPRLASHGFVVITIDTNSTSDQPPSRATQLMAALNQLKTFSNTSSHPIYRKVDPNRLGVMGWSMGGGGTLIAARDNPTLKAAIPFAPWNSSTNFSTVSVPTLIIACESDSTAPVNSHASPFYNSLPSTTKKAYLEMNNGSHSCANSGNSNAGLIGKYGVSWMKRFMDNDTRFSPYLCGAPHQADLSLTAIDEYRENCPY
**Q.** Which “Proxy for plastic degradation” value (PET [2]; 30 °C) does the source give for B5 here?
**A.** Its value is 795 µM.

**Q.** What about the “Proxy for plastic degradation” value (PET [2]; 40 °C) of the same protein?
**A.** The value was 790 µM.

B6: unnamed (protein)
chain: QLGAIENGLESGSANACPDAILIFARGSTEPGNMGITVGPALANGLESHIRNIWIQGVGGPYDAALATNFLPRGTSQANIDEGKRLFALANQKCPNTPVVAGGYSQGAALIAAAVSELSGAVKEQVKGVALFGYTQNLQNRGGIPNYPRERTKVFCNVGDAVCTGTLIITPAHLSYTIEARGEAARFLRDRIRA
**Q.** Which results are given for B6?
**A.** Proxy for plastic degradation (PET [3]; 0 h): 0%; Proxy for plastic degradation (PET [3]; 24 h): 38%; Proxy for plastic degradation (PET [3]; 48 h): 50%; Proxy for plastic degradation (PET [3]; 72 h): 70%; Proxy for plastic degradation (PET [3]; 96 h): 90%

B7: unnamed (protein)
chain: MNFPRASRLMQAAVLGGLMAVSAAATAQTNPYARGPNPTAASLEASAGPFTVRSFTVSRPSGYGAGTVYYPTNAGGTVGAIAIVPGYTARQSSIKWWGPRLASHGFVVITIDTNSTLDQPSSRSSQQMAALRQVASLNGTSSSPIYGKVDTARMGVMGWSMGGGGSLISAANNPSLKAAAPQAPWDSSTNFSSVTVPTLIFACENDSVAPVASSALPIYDSMSRNAKQFLEINGGSHYCANSGNSNQALIGKKGVAWMKRFMDNDTRYSTFACENPNSTRVSDFRTANCSLEHHHHHH
**Q.** B7 was tested. Which “Proxy for plastic degradation” value (PET [4]) did it give?
**A.** Its value is 3.2.

B8: unnamed (protein)
chain: MNFPRASRLMQAAVLGGLMAVSAAATAQTNPYARGPNPTAASLEASAGPFTVRSFTVSRPSGYGAGTVYYPTNAGGTVGAIAIVPGYTARQSSIKWWGPRLASHGFVVITIDTNSTLDQPSSRSSQQMAALRQVASLNGTSSSPIYGKVDTARMGVMGWSMGGGGSLISAANNPSLKAAAPQAPWDSSTNFSSVTVPTLIFACENDSVAPVASSALPIYDSMSRNAKQFLEINGGSHSCANSGNSNQALIGKKGVAWMKRFMDNDTRYSTFACENPNSTRVSDFRTANCSLEHHHHHH
**Q.** B8 was tested. Which “Proxy for plastic degradation” value (PET [4]) did it give?
**A.** Its value is 2.

B9: unnamed (protein)
chain: MNFPRASRLMQAAVLGGLMAVSAAATAQTNPYARGPNPTAASLEASAGPFTVRSFTVSRPSGYGAGTVYYPTNAGGTVGAIAIVPGYTARQSSIKWWGPRLASHGFVVITIDTNSTLDQPSSRSSQQMAALRQVASLNGTSSSPIYGKVDTARMGVMGWSMGGGGSLISAANNPSLKAAAPQAPWDSSTNFSSVTVPTLIFACENDSVAPVNSSALPIYDSMSRNAKQFLEINGGSHSCANSGNSNQALIGKKGVAWMKRFMDNDTRYSTFACENPNSTRVSDFRTANCSLEHHHHHH
**Q.** Which “Proxy for plastic degradation” value (PET [4]) does the source give for B9 here?
**A.** The value was 0.6.

B10: unnamed (protein)
chain: MNFPRASRLMQAAVLGGLMAVSAAATAQTNPYARGPNPTAASLEASAGPFTVRSFTVSRPSGYGAGTVYYPTNAGGTVGAIAIVPGYTARQSSIKWWGPRLASHGFVVITIDTNSTLDQPSSRSSQQMAALRQVASLNGTSSSPIYGKVDTARMGVMGWSMGGGGSLISAANNPSLKAAAPQAPWDSSTNFSSVTVPTLIFACENDSIAPVNSSALPIYDSMSRNAKQFLEINGGSHSCANSGNSNQALIGKKGVAWMKRFMDNDTRYSTFACENPNSTRVSDFRTANCSLEHHHHHH
**Q.** How did the “Proxy for plastic degradation” value (PET [4]) turn out when B10 was run?
**A.** Its value is 1.5.

B11: unnamed (protein)
chain: MTHQIVTTQYGKVKGTTENGVHKWKGIPYAKPPVGQWRFKAPEPPEVWEDVLDATAYGPICPQPSDLLSLSYTELPRQSEDCLYVNVFAPDTPSQNLPVMVWIHGGAFYLGAGSEPLYDGSKLAAQGEVIVVTLNYRLGPFGFLHLSSFNEAYSDNLGLLDQAAALKWVRENISAFGGDPDNVTVFGESAGGMSIAALLAMPAAKGLFQKAIMESGASRTMTKEQAASTSAAFLQVLGINEGQLDKLHTVSAEDSLKAADQLRIAEKENIFQLFFQPALDPKTLPEEPEKAIAEGAASGIPLLIGTTRDEGYLFFTPDSDVHSQETLDAALEYLLGKPLAEKAADLYPRSLESQIHMMTDLLFWRPAVAYASAQSHYAPVWMYRFDWHPKKPPYNKAFHALELPFVFGNLDGLERMAKAEITDEVKQLSHTIQSAWITFAKTGNPSTEAVNWPAYHEETRETLILDSEITIENDPESEKRQKLFPSKGE
**Q.** For B11, which “Proxy for plastic degradation” value (PET [5]; 1 h) is on record?
**A.** Its value is 0 µM.

**Q.** And the “Proxy for plastic degradation” value (PET [5]; 2 h)?
**A.** Its value is 100 µM.

**Q.** What about the “Proxy for plastic degradation” value (PET [6]; 1 h) of the same protein?
**A.** Its value is 10 mM.

**Q.** And the “Proxy for plastic degradation” value (PET [6]; 2 h)?
**A.** The value was 1250 mM.
